The chains are these.
B1: isolated ZZ-DZB domain of KCMF1 (domain or fragment)
chain: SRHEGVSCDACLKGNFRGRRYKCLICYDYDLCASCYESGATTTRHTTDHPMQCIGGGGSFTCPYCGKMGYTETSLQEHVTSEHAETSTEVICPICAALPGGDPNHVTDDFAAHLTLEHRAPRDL
B2: AtUBR4 ZZ domain (domain or fragment)
chain: SSVQYCCDGCSTVPILRRRWHCTVCPDFDLCEACYEVLDADRLPPPHTRDHPMTAIPI

Some targets named below: ^NLT peptide; ^NRA peptide; ^NRR peptide.
What all share (assay): ITC
A general note: ITC needs no label: the signal is the heat of the interaction.

In assay [1] the target is B1.

A word on the Kd: it is the free concentration of one partner at which half of the binding sites on the other are occupied at equilibrium, for simple one-to-one binding. A lower Kd goes with tighter binding.

Sequence of ^NLT peptide (Q9P0J7 other isoform, or with tags, fused parts or gaps): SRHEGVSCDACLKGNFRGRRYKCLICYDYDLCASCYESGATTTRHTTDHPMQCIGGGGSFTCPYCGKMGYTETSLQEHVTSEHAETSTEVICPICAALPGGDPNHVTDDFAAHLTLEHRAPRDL

In the assay with ^NLT peptide, B1 registered a Kd of 16 µM.
Take RTGG [^NRT peptide (ITC)]: binding in assay [1] was put at a Kd of 7 µM.
In the case of B2, the dissociation constant (Kd) stood at 10 µM in the assay with ^NRA peptide and 19 µM with ^NRR peptide.

These data come from article PMC7618180 (2025).
